From the nanobody polyreactivity screen of Harvey et al. (2022)

Experiment: yeast display, Sf9 membrane polyspecificity reagent, FACS + sequencing; frameworks hold sequencing errors
Procedure, shortened: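 Synthetic nanobody libraries on Saccharomyces cerevisiae BJ5465 were galactose-induced for 36–48 hours, stained 1 hour at 4 °C with 10% biotinylated, detergent-solubilized Sf9 membrane reagent and enriched on streptavidin microbeads. FACS then separated cells into low and high (top ~1%) gates by anti-HA (expression) and streptavidin (reagent binding) fluorescence. Genes were colony-PCR amplified, MiSeq 2 × 250 sequenced and CDR-length filtered. A clone's polyreactivity label is that of its gate of origin.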

| Sequence | polyreactivity (PSR sort gate) |
| --- | --- |
| QVQLVESGGGLVQAGGSLRLSCAASGSIFYLYAMGWYRQEPGKERELVAAINFRGGSTYADSVKGRFTISRDNAKNTVYLQMNSLKPEDTAVYYCAAKAAYRMNYWGQGTQVTVSS | high polyreactivity |
| QVQLVESGGGLVQAGGSLRLSCAASGSIFYLYDKGWYRQAPGKERELVADITWSGGSTYYADSVKGRFTISRDNAKNTVYLQMYSLKPEDTAVYYCAAAYGPFYYELYDYWGLGTQVTVSS | low polyreactivity |
| QVQLVESGGGLVQAGGSLRLSCAASGSIFYLYTMGWNRQAPGKERELVAAITAISGSTYYADSVKGRFTISRDNAKNTVYLQINSLKPEDTAVYYCAAKYYRHRWQLYNYWGQGTQVTVSS | high polyreactivity |
| QVQLVESGGGLVQAGGSLRLSCAASGSIFYPNAMGWYRQAPGKERELVAANSIGGGRTYYADSVKGRFTISRDNAKNTVYLQMNSLKPEDTAVYYCAASFYSYTSTWAYRFYYWGQGTQVTVSS | high polyreactivity |
| QVQLVESGGGLVQAGGSLRLSCAASGSIFYPNVMGWYRQAPGKERELVAAIRTSGGSTYYADSVKGRFTISRDNAKNTVYLQMNSLKPEDTAVYYCAADYIYVKYEYWGQGTQVTVSS | high polyreactivity |
| QVQLVESGGGLVQAGGSLRLSCAASGSIFYPYAMGRYRQAPGKERELVASIRSRRGTTFYADSVKGRFTISRDNAKNTVYLQMNSLKPEDTAVYYCAVDNWSSSYYWWVDKLGGSDYWGQGTQVTVSS | low polyreactivity |
| QVQLVESGGGLVQAGGSLRLSCAASGSIFYPYAMGWSSKAPRKERELVARISSAGGTYYADSVKGRFTISRDNAKNTVYLQMNSLKPEDTAVYYCAAQARYRYYYWGQGTQVTVSS | high polyreactivity |
| QVQLVESGGGLVQAGGSLRLSCAASGSIFYPYAMGWYRQAPGKERELVAAISSGGTTYYADSVKGRFTISRDNAKNTVYLQMNSLKPEDTAVYYCGAGFYLRAVWMDYWGQGTQVTVSS | high polyreactivity |
| QVQLVESGGGLVQAGGSLRLSCAASGSIFYPYAMGWYRQAPGKERELVAAISSSGGSTYYADSVKGRFTISRDTAKNTVYLQMNSLKPEDTAVYYCAARGKKHAYDYWGQGTQVTVSS | low polyreactivity |
| QVQLVESGGGLVQAGGSLRLSCAASGSIFYPYAMGWYRQAPGKERELVASISSGGSTYYADSVKGRFTISRDNGKNTVYLQMISLKTDDTAVYYCIAVFSTFTGEYYWGKGTQVTVSS | high polyreactivity |
| QVQLVESGGGLVQAGGSLRLSCAASGSIFYPYAMGWYSQAPGKERELVAGISRSGASTYYADSVKGRFTISRDNAKNTVYLQMNSLKPEDTAVYYCAADDWTRNYWGQGTQVTVSS | low polyreactivity |
| QVQLVESGGGLVQAGGSLRLSCAASGSIFYPYVMGWYRQAPGKERELVATITWSGDDTNYADSVKGRFTISRDNAKNTVYLQMNSLKPEDTAVYYCAVGYGDYLYYDYDYWGQGTQVTVSS | low polyreactivity |
| QVQLVESGGGLVQAGGSLRLSCAASGSIFYQNAMGWYIQAPGKERELVAAITSDGSTYYADSVKGRFTISRDNAKNTVYLQMNSLKPEDTAVYYCAAEYYGHRYDYWGQGTQVTVSS | low polyreactivity |
| QVQLVESGGGLVQAGGSLRLSCAASGSIFYQNAMGWYRQAPGKEREFVAAITWIGGSTYYADSVKGRFTISRDNAKNSVYLQMNILKPEDTAVYYCAADSVDNIYYGFDYWGQGTQVTVSS | high polyreactivity |
| QVQLVESGGGLVQAGGSLRLSCAASGSIFYQNAMGWYRQAPGKERELVAAISSAGSTYYADSVKGRFTISRDNAKNTVYLQMNSLKPEDTAVYYCARRSSGELGYHIYDYWGQGTQVTVSS | low polyreactivity |
| QVQLVESGGGLVQAGGSLRLSCAASGSIFYQNAMGWYRQAPGKERELVAAITWRSGSTYYADSVKGRFTISRDNAKNTVDLQMNSLKPEDTAVYYCAADLLISPEFYYWGQGTQVTVSS | high polyreactivity |
| QVQLVESGGGLVQAGGSLRLSCAASGSIFYQNMGWYRQAPRKERELVATINRGSSTHYADSVKGRFTISRDNAKNTVYLQMNSLKPEDTAVYYCAKRSSRYRLYYWGQGTQVTVSS | high polyreactivity |
| QVQLVESGGGLVQAGGSLRLSCAASGSIFYQYAMGWYRQAPGKERELVARIRGSTGTTYYADSVKGRFTISRDNAKNTVYLQMNSLKPEDTAVYYCNAARYQGRSRFDYWGQGTQVTVSS | high polyreactivity |
| QVQLVESGGGLVQAGGSLRLSCAASGSIFYRNAMGWSRQAPGKEREFVAAITLRGGSTYYADSVKGRFTISRDYAKNTVYLQMNSLKPEDTAVYYCNAGVGLTYVHDGDYWGQGTQVTVSS | low polyreactivity |
| QVQLVESGGGLVQAGGSLRLSCAASGSIFYRNAMGWYRQAPGKEREFVAAITLRGGSTYYADSVKGRFTISRDKAKNTVYLQMNSLKPEDTAVYYCNAGVGLTYVHDGDYWGQGTQVTVSS | low polyreactivity |
| QVQLVESGGGLVQAGGSLRLSCAASGSIFYRNAMGWYRQAPGKERELVAAISSDGSTNYADSVKGRFTISRDNAKNTVYLQMNSLKPEDTAVSYCAAPWTQILDYWGQGTQVTVSS | low polyreactivity |

| Sequence | polyreactivity (PSR sort gate) |
| --- | --- |
| QVQLVESGGGLVQAGGSLRLSCAASGSIFYRNAMGWYRQAPGKERELVAAITWSGVNTYYADSVKGRFTISRDNAKNTVYLQMNSLKPEDTAVYYCAVPSRYWLNRGFDYWGQGSQVTVSS | low polyreactivity |
| QVQLVESGGGLVQAGGSLRLSCAASGSIFYRNTMGWYRQAPGKERELVAAITRGTRTYYADSGKGRFTISRDNAKNTVYLQMNSLKPEDTAVYYCNARFVGRTGGSFDYWGQGTQVTVSS | high polyreactivity |
| QVQLVESGGGLVQAGGSLRLSCAASGSIFYRNTMGWYRQAPGKERELVAAITTSGGSTYYADSVKGRFTISRDNAKNTVYLQMNSLKPEDTAVYYCAARTWERWYRYYYWGQGTQVTVSS | high polyreactivity |
| QVQLVESGGGLVQAGGSLRLSCAASGSIFYRNTMGWYRQAPGKERELVASINTGTGTYYADSVKGRFTISRDNAKNTVYLQMNSLKPEDTAVYYCNKVSYVKYGYWGQGTQVTVSS | high polyreactivity |
| QVQLVESGGGLVQAGGSLRLSCAASGSIFYRNVMGWYRQAPGKERELVAAISSGTSTYYADSVKGRFTISRDNAKHTVYFPMNSLKPEDPAVYDCAADGLHYYGQRWYYGVDYWVQGTQVTVSS | low polyreactivity |
| QVQLVESGGGLVQAGGSLRLSCAASGSIFYRNVMGWYRQAPGKERELVAAITWSGGSTYYADSVKGRFTISRDNAKNTVYLQMNSLKPEDTAVYYCAAASKGTYRGKVSGYYYWGQGTQVTVSS | high polyreactivity |
| QVQLVESGGGLVQAGGSLRLSCAASGSIFYRYAMGWYRPAPGKERELVAAISSTGSTYYADSVKGRFTISRDNAKNTVYLQMNSLKPEDTAVYYCAARQGYRSYRRYDYWGQGTQVTVSS | high polyreactivity |
| QVQLVESGGGLVQAGGSLRLSCAASGSIFYRYAMGWYRQAPGKERELVAAISSGGSTYYADSVKGRFTISRDNAKNTVYLQMNSLKPEDTAVYYCAAKHYYYSPYVRYDPPPGYYWGQGTQVTVSS | high polyreactivity |
| QVQLVESGGGLVQAGGSLRLSCAASGSIFYRYAMGWYRQAPGKERELVAAISWGGGRTYYADSVKGRFTISRDNAKNTVYLLMKSLKPEDTAVYYCNAVQSYYTVHRLDYWGQGTQVTVSS | high polyreactivity |
| QVQLVESGGGLVQAGGSLRLSCAASGSIFYRYAMGWYRQAPGKERELVAAISYNGGRTYYADSVKGRFTISRDNAKNTVYLQMNSLKPEDTAVYYCNAAGRDDAYDYWGQGTQVTVSS | high polyreactivity |
| QVQLVESGGGLVQAGGSLRLSCAASGSIFYRYAMGWYRQAPGKERELVATISLSGGSTYADSVKGRFTISRDNAKNTVYLQMNSLKPEDTAVYYCAAGGQYYIIRYDYWGQGTQVTVSS | low polyreactivity |
| QVQLVESGGGLVQAGGSLRLSCAASGSIFYRYDMGWYRQAPGKERELVADISWSSGRTYYADSVKGRFTISRDNAKNTVYLQMNSLKPEDTAVYYCATDDFWNVKFYAYYPEFDYWGQGSQVTVSS | low polyreactivity |
| QVQLVESGGGLVQAGGSLRLSCAASGSIFYRYTMGWYRQAPGKERELVAGITFGAGTYYADSVKGRFTISRDNAKNTVYLQMNSLKPEDTAVYYCNAKHLPRHRDYWGQGTQVTVSS | low polyreactivity |
| QVQLVESGGGLVQAGGSLRLSCAASGSIFYSNAMGWYRQAPGKERELVAAISGSGGTTYYADSVKGRFTISRDNAKNTVYLQMNSLKPEETAVYYCAAKPSVRVRLSDYWGQGTQVTVSS | high polyreactivity |
| QVQLVESGGGLVQAGGSLRLSCAASGSIFYSNTMGWYRQAPGKERELVAAISRGGSTYYADSVKGRFTISRENAKNTVYLQMNSLKPEDTAVYYCAARYRWAPAYDYWGQGTQVTVSS | high polyreactivity |
| QVQLVESGGGLVQAGGSLRLSCAASGSIFYSNVMGWYRQAPGKERELVAAIRYSGVGTYYADSVKGRFTISRDNAKNTVYLQMNSLKPEDTAVYYCNAVTKVGYLRRRDYWGQGTQVTVSS | low polyreactivity |
| QVQLVESGGGLVQAGGSLRLSCAASGSIFYSYAMGWYRQAPGTERELVAAISWDASTYYADSVKGRFTISRDNAKNTVYLQMNSLKPEDTAVYYCNADIPYYFVYDAYDYWGQGTQVTVSS | low polyreactivity |
| QVQLVESGGGLVQAGGSLRLSCAASGSIFYSYTMGWYRQAPGKEMELVAAINSGGSTYYADSVKGRFTISRDNAKNTVYLQMNSLKREDTAVYYCAARRTTSSGGYYYWGQGTQVTVSS | high polyreactivity |
| QVQLVESGGGLVQAGGSLRLSCAASGSIFYTNAKGWYRPAPGKERELVAAISYGGTTTYADSVKGRFTISRDNAKNTVYLQMNSLIPEDTAVYYCNADWLYYGYWGYGHIWYDFWGQGTQVTVSS | low polyreactivity |
| QVQLVESGGGLVQAGGSLRLSCAASGSIFYTNALGWSRQARGKERELVAAMSISGSTYYADSVKGRFTISRDNAKNTVYLQMNSLKPEDTAVYYCAAGPGYVRYPRSGVWYVTLYDYWGQGTQVTVSS | high polyreactivity |
